The values below come from patent US20220332804A1 (CSL INNOVATION, published 2022).

Assay in all cases: SPR, mAb captured, C2 mutant analyte;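 note: Anti-C2 mAbs captured on goat anti-human IgG Biacore CM5 chips, alanine or serine C2 surface mutants flowed over at 37 °C, double-referenced sensorgrams fitted to a 1:1 binding model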
One assay deals with T1, human C2 G677A (human, UniProt P06681 21-752).
T1 sequence: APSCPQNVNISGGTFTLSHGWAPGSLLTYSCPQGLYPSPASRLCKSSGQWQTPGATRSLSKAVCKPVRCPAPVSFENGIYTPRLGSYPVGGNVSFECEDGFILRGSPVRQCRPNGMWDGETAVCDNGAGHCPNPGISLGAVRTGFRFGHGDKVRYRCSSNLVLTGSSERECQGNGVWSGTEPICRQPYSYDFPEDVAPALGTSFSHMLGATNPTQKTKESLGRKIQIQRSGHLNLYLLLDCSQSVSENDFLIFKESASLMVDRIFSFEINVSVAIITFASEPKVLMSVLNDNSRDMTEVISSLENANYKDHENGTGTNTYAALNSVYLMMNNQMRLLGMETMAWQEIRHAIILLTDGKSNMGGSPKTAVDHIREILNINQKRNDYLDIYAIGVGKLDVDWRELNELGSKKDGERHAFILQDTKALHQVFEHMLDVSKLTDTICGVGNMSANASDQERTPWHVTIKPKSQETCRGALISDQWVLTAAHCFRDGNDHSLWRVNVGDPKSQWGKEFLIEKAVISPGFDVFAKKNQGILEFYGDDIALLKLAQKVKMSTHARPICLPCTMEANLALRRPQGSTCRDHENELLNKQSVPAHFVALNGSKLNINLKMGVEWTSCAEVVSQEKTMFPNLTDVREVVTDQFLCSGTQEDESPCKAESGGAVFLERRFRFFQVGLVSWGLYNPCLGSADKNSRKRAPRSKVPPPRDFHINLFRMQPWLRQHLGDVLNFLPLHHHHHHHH

A further assay concerns the target T2, human C2 D282A (human, UniProt P06681 21-752).
T2 sequence: T1 sequence with D262A, A657G

The next assay concerns the target T3, human C2 H451A (human, UniProt P06681 21-752).
T3 sequence: T1 sequence with H431A, A657G

The next assay addresses T4, human C2 L453A (human, UniProt P06681 21-752).
T4 sequence: T1 sequence with L433A, A657G

Where a chain is given by its changes, count along the chain named.

B1: RF16-214 (antibody, V domains shown)
VH: EVQLLESGGGLVQPGGSLRLSCAASGFTFSWYQMMWVRQAPGKGLEWVSRIYPSGGGTAYADSVKGRFTISRDNSKNTLYLQMNSLRAEDTAVYYCARDAGYGDNWGQGTLVTVSS
VL: QSALTQPPSVSVSPGQTASITCSGDKLGEKYASWYQQKAGQSPVMVIYQDRKRPSGIPERFSGSNSGNTATLTISGTQAMDEADYYCQAWDTRAVVFGGGTKLTVLG
B1: the equilibrium dissociation constant (Kd) in the assay with human C2 G677A came out at 28.1 nM; in the assay with human C2 H451A, 138 nM; with human C2 L453A, 1410 nM. In the assay with human C2 D282A, the binding result is “no binding”.
